Assay results as given in the DeepSol protein solubility set.

assay: soluble on expression in E. coli; label from the status in PepcDB or PDB records

Q: With “MRRTLVVPDVLLLGTLLAGLLLLSGCEGDYRPRAVGPIGEITVVMDSSHWTGPSGEALRANVTPWVETLPVSERSFQLRHLELTDERTYERVQDLKNVIIAAPLSDSTNETSFLRRRLSDEAEQAILDGQTAVVPKPNLWRRSQRIYYVAAASPDALAETFQSQGTQIRDTFTEATLQRMDRNMYEDDRRSALEDTLMQRHGFAVNMQSDFQIAVDTTTGSEGFVWLRRLLAQTRREFFVYYVEDVSPDQITPEWIYNTRDSLTRRHLRGNVRGFAKIDYRRPLKTEQRSFLDRYAYDSRGLWYMVAPLGGGNELRPVGGGGPFVNYTFYDQATDRVYMLDGSIFAPDNDKIDLLRQMEVMARTFRTAEGSRSPDASPTAAKLEHHHHHH” as the sequence, how does the “soluble on expression in E. coli” value read?
A: not soluble

Q: For “MRSIVGDLLLLRLGDVAEGPMNQRLYRAIREAILDGAIAADTRLPATRDLAAELGIARNTVVHVYSQLQAEGYTHSRQGNGTFVTASLPDAYLASGRHARRPAIAAVRPTLSERGARIVDQVSASPYQWGAFMPGVPDLTEFPHQKFGRLFSTLWRNPHPEMLTYAYGGGLPALREALAQHLALTRSIDCDPEQIIITEGSHQAIDLATRILGGHGDLAWIENPGYWGARSVLIANGIRIEPLPVDEEGMQLPAEPVAQPPRFIFVTPSHQYPLGSVMSLARRRQLLALARSWGSWIIEDDYDSEFRFSGRPISSLQGLEPDAPVIYLGTFSKTLYPGLRVGYLVLPKALAGAFQAAHAELYREGHLVTHAVLASFIAEGHYAAHIRRMRMLYGRRRAILVNLIERRLGAQWLHPDSSDAGLHLVLDFPSGLDDKQVMQAAHARGVLTRALSRYYAEGTTPRQGLLLGYACVPENDIARKFELVLDSLAEVAQRSRA”, which “soluble on expression in E. coli” value is on record?
A: not soluble

Q: With “MRSKRWKTSDITDYGKKRKESESCGSSSPILETQSSGGAELDEVTEDEYSSNSSSNETSDEEENSEVPNVLSITEREKSWQKLTENDLGRIRFILKYTSNTKKCVNEYFQYNHGQNNEIMKSLLLDTDGTMTAKACSECAYDLNQCHCKKPLRFINAPCEVINQVLHVENAEPTRINHVIATLFRNHIGEIFTKARTAEARASEEAQIRIQIQDNSNAFQRSYHNDPQPSSAEEHEEDIVVDG” as the sequence, how does the “soluble on expression in E. coli” value read?
A: not soluble

Q: Which “soluble on expression in E. coli” value does the source give for “MRSLADFEFNNAPLCDGMILASEMIRLDFPTQFVYDELERLVSLAQEEISQLLSQDEQLEKLLALFYGEWGFTDSRGVYRLSDALWLDKVLKKRQGSAVSLGAILLWIANRLDLPLVPVIFPTQLILRIESLEGEMWLINPFNGETLDEHTLEVWLKGNISPVAELFNEDLDEADNAEVIRKLLDTLKSSLMEERQMELALRVSEALLQFNPEDPYEIRDRGLIYAQLECEHVALTDLSYFVEQCPEDPISEMIRAQINTIAHKQIVLHLEHHHHHH” here?
A: not soluble

Q: With “MRSPDSDRPVHRMRALREAVSDADSHSRRGGRMIAREWQFALPEKKHKKKYFGNLKAEVIDAGLCCHCAACASICPVNGITAGDAPIDFPNWVKECVDCGACIKVCPRWEYTPKNGLGEYIEVVAARSKRFVGQDGAMVTEFTASALEMGIIERAIFVARDSNWRTRVVTIKTPEQLYDRKITGTKYSYADVLPALKEAVLKSEAVGFVGTPCMVSAVRKMQQAFKKFERVKLAIGLFCTENFYHHDLYKFLLEKANADLRNAVKTDIKKGKFIVEMKDGSKVRIPVKDFEEIIPSGCKVCQDFAAVESDVSVGSVGSPNRFSTVMVRTEVAKQILDYIREKDYAEFGEAKLDIVQKLCDHKMKIHPWPPKKKEEKSEELEHHHHHH” as the sequence, how does the “soluble on expression in E. coli” value read?
A: soluble

Q: With “MRSRHDTYNNDCDRTLVIMAQRTLAYIVSRRQSASGFTTTARARRWHV” as the sequence, how does the “soluble on expression in E. coli” value read?
A: not soluble

Q: Which “soluble on expression in E. coli” value does the source give for “MRTLFIGDLHLSADRLDITQAFNRFLDTELDDADALYILGDLFEVWVGDDLAAPFALELAHKLKQVSQTLPIFFIHGNRDFMLGKRFAEAAGMQLLPEVTCIELYGVKTVILHGDSLCTLDKAYQRFRKLRSFACARWLYSCLPKKRRQAIANKIRSNSQSSNQQKSYVIMDVEPSAVNALFVKTHTTRMIHGHTHRPAIHIVDNACQRIVVGDWYEQGSVLSVSANGVDLKSLPFETTLEHHHHHH” here?
A: not soluble

Q: With “MRTLLIRYILWRNDGDPSYYNDDFKKLILFDELVDDDDVCTLIKNMRMTLSDGPLLDRLNQPVNNVEDVKRMIAISAKVARDIGRRSEIRWEDSFTILFRMIEKYFDDLMTDLYGEK” as the sequence, how does the “soluble on expression in E. coli” value read?
A: not soluble

Q: For “MRTLPSVLAAHLASGATTLCFAWRVTRRDGLVTGFTDHDRDLVVDGVTCKAASGISGSQSTLASGLSVTGAEVSGALSHDALSEDDLAAGLYDGAAIDHLLVNWQDPAQVLLLRRGTIGEVRAQDGVFTAEIRSLSDGLNQTRGRLLSSSCDADLGDARCGVDLTLPAHAASATVVAVEGALSLRVTGLSAFAQGAFARGRARLSSGANAGFVTEVKAHLVDAEGVLLRLWQRPPFAVAEGDGITLTAGCDKQLATCRDRFSNALNFRGFPHMPGNDFVIAVAIAGEGGYDGSLLE”, which “soluble on expression in E. coli” value is on record?
A: soluble

Q: With “MRTVALGIVAMACLVAIAHGGNFFQDAEVSWGQGRGKIVDGGRGLDLTLDRSSGSGFQSKSEYLFGKIDMQIKLVPGGWWNQELSDMSYRRMRWVQRKFMIYNYCTDAKRFPQGTPAECKLR” as the sequence, how does the “soluble on expression in E. coli” value read?
A: not soluble

Q: With “MRTVSTVAELRAALPREGVGFVPTMGYLHRGHLALVERARRENPFVVVSVFVNPLQFGPGEDYHRYPRDLERDRALLQEAGVDLLFAPGVEEMYPEGFATRVQVEGPLTALWEGAVRPGHFQGVATVVARLFLLVQPQRAYFGEKDYQQLLVVRRMVRDLGFPVEVVGVPTVREEDGLALSSRNVYLSPETRKKAPVLYRALLAMREVAGQGGSVAEALRAGEEALRAVPEFRKDYLAIVHPETLLPLSDWVAGARGIVAGRFPEARLIDNLEVYP” as the sequence, how does the “soluble on expression in E. coli” value read?
A: soluble

Q: With “MRVFALQLESFKENLMQSLFNSIPKKSVIVLPEYVINPFFHHNMGLDVNEISDQSARAVEFLSQKCEELDLIVSAPVLLEEHSKIYKKIALISKESVKYYTQQRLIPYPHWDEESFFDNEKSAFKELLVFERDGLKFAPLFGFEAHFDEIWVQAKNQGVDVVLLSSVATFESNERWRLLCQMRAFCASCVVVRANRIGAYRQIIVEEDQKNEFLWKFYGDSFVALPNGAIEDSLEGKMGALNAQIDKNDIDEWAKLWHFRTIKEGLEHHHHHH” as the sequence, how does the “soluble on expression in E. coli” value read?
A: not soluble

Q: For “MRVLFIGDVMAEPGLRAVGLHLPDIRDRYDLVIANGENAARGKGLDRRSYRLLREAGVDLVSLGNHAWDHKEVYALLESEPVVRPLNYPPGTPGKGFWRLEVGGESLLFVQVMGRIFMDPLDDPFRALDRLLEEEKADYVLVEVHAEATSEKMALAHYLDGRASAVLGTHTHVPTLDATRLPKGTLYQTDVGMTGTYHSIIGGEVETFLARFLTGRPQPFRAAQGKARFHATELVFEGGRPVAISPYVWEEP”, which “soluble on expression in E. coli” value is on record?
A: soluble

Q: With “MRVVALGDLHANFPLLWRILRREGLADEGFRPTEALRSGRVRLVLLGDLVHPKTPRDYARLTGLEAYDPEDPFHLRLAAGAQIRELFRLKAFQEEAGDHVTILLGNHEAALLEGSPILGNRHLKHLEFHPEHGGKALPEALRSWMASFPKELVLKGVHFAHVGPVPWLQEYDGLFYAQSEAKTWWFLTPEYVERMGYRYGVYGHTPMPDGILLKDRFALIDALDLGEYLVLDPEADPPRPEVRRLHE” as the sequence, how does the “soluble on expression in E. coli” value read?
A: soluble

Q: With “MRYFPLFLDLTNKPVLVVGGGEVACRKIDALLRADAKVTVISPQVAPALQAWIEQGKCHWIQHFYSSHWLDKRYVQVWATTDNPELNHQVYKDAKEQGILVNVVDDQPYCDFITPSMIERGRIQLAISSGGASPVLIRNIRETLEAVLAQNLALLADFGASKRNSIKDFLPSVDLRRQFWERFFAHPEVKNAQDRESLERIYIHLLTQSTDKVSATTWIEFGADVELLSLKALRYMQQAELVLHTQDCPFVFVDLCRRDAQRQSFNSSVELSTLLLQAQQETQNVCVLIPSGSSEYALLQGKATVLKMAQQG” as the sequence, how does the “soluble on expression in E. coli” value read?
A: not soluble

Q: For “MRYLELAQLYQKLEKTTMKLIKTRLVADFLKKVPDDHLEFIPYLILGEVFPEWDERELGVGEKLLIKAVAMATGIDAKEIEESVKDTGDLGESIALAVKKKKQKSFFSQPLTIKRVYQTLVKVAETTGEGSQDKKVKYLADLFMDAEPLEAKYLARTILGTMRTGVAEGLLRDAIAMAFHVKVELVERAYMLTSDFGYVAKIAKLEGNEGLAKVQVQLGKPIKPMLAQQAASIRDALLEMGGEAEFEIKYDGARVQVHKDGSKIIVYSRRLENVTRAIPEIVEALKEAIIPEKAIVEGELVAIGENGRPLPFQYVLRRFRRKHNIEEMMEKIPLELNLFDVLYVDGQSLIDTKFIDRRRTLEEIIKQNEKIKVAENLITKKVEEAEAFYKRALEMGHEGLMAKRLDAVYEPGNRGKKWLKIKPTMENLDLVIIGAEWGEGRRAHLFGSFILGAYDPETGEFLEVGKVGSGFTDDDLVEFTKMLKPLIIKEEGKRVWLQPKVVIEVTYQEIQKSPKYRSGFALRFPRFVALRDDKGPEDADTIERIAQLYELQEKMKGKVES”, which “soluble on expression in E. coli” value is on record?
A: soluble

Q: For “MRYTGYMMEVRQLRHFVTVAEWESFTLAAQQLHIAQPALSISIKKFEQQLGVTLFKRDERKVALTHEGEVLLEHAKRILQQVNDAQLAVDELKGVVKGEVRLGAPSMMGSYFFPQIIMAFKSHFPNLKMTVIEAGTQSIRRMLLSGELDIGVILNHDLPDDLAADPLLSSQMVAVVGKNHELAERRHLTFAEFFEHELVMFKPGYFHRDFIDKVCREHKFTADFSFETNLLPMILSIVKHEYAITALLELVTSNEPEVKAIPFEPPVWLDLALAWRKEGYLSNADRTFIEFVKKYV”, which “soluble on expression in E. coli” value is on record?
A: not soluble

Q: For “MSADHDHDHDHDHDHKPAPMVEEVSDFEILEMAVRELAIEKGLFSAEDHRVWKDYVHTLGPLPAARLVAKAWLDPEYKKLCIEDGVEASKAVGVNWVTSPPTQFGTPSDYCNLRVLADSPTLKHVVVCTLCSCYPRPILGQSPEWYRSPNYRRRLVRWPRQVLAEFGLQLPSEVQIRVADSNQKTRYIVMPVRPEGTDGWTEDQLAEIVTRDCLIGVAVPKPGITVNAKRPVLKANRPVHHDH”, which “soluble on expression in E. coli” value is on record?
A: soluble

Q: Which “soluble on expression in E. coli” value does the source give for “MSAICQVTGRQPGYGKSVSHSHRRTSRRWNPNVQRRKFYLPSEGRTITLNVSTKGLKVIDRDGIESVVAKIRARGEKILEHHHHHH” here?
A: not soluble

Q: For “MSAKGKHVVVIGGGDTGADCITTSVRHGAKSITQFDINREKSNERPDNNPWPLFPIVHTVEDGHKEAAAVYGKDPRAYQVMTTKFVGDAEGHVKEIHTISVETTVHPDGSKTRVEIPGTEKVWPADLVFLAVGFTGPEEQLVRELELETDTRSNIKAEYGKYETSLEGVFAAGDNRRGQSLVVWAIHEGREAARECDKYLMGLEHHHHHH”, which “soluble on expression in E. coli” value is on record?
A: not soluble

Q: For “MSAKPVIVGGGPAGMSAAMELARHGVECVLLDEASRVGGVVYRGPLREGVVLDYLGERYRENMQALHREFEQVRDRIDIRLNTRVVGGGEGELFALTPDERVEAVPFSQLLLAAGCHERSVPFPGWTLPGVIMLGGLQLQIKSGVVKPLGRTVLVGTGPLLPLVACQLHRAGVEVAGVYEASAFGRLAKETIALLNQPQLFLDGLSMVAYLKRHGIPLHYGWGVVEAHGDAELGEVTVAPYDAEWRADLTRSRRLPAQTLAVGYGFIPRTQLTQQMGLEHRYADDGYLKPVNDEWQRSSRGNIHLAGDIGGLRGGEAAMISGRIAALSMLLQLGKLDEQQALRQRQACLDQMASILRFRKGIDSFTRRGRGQLALPARDTVICRCEHATRQDIDTALEQGVNDLISLKMRTRVSMGDCQGKMCVGYCSDRLREHTGKRDVGWIRPRFPLDPLPFSAFSAIDAQQTEEILEHHHHHH”, which “soluble on expression in E. coli” value is on record?
A: not soluble
